Results on one substance are retold here after patent publication US20110044911A1.

This test has as its target receptors for CRF on murine pituitary tumor cell line AtT-20 (murine). As to the kind of experiment: cell-based or functional assay.

Take “CRF-conjugated dextran-coated and maleimide surface-modified magnetonanoparticles (peptide)”: the Production of c-AMP (nM) amounted to 2 fold and the fold decrease in Production of c-AMP (nM) was determined as 10 fold.
